B1: KANK1 WT: human FL-KANK1 tagged with pmCherry (protein, UniProt Q14678 1-1352, looked up)
chain: MAHTTKVNGSASGKAGDILSGDQDKEQKDPYFVETPYGYQLDLDFLKYVDDIQKGNTIKRLNIQKRRKPSVPCPEPRTTSGQQGIWTSTESLSSSNSDDNKQCPNFLIARSQVTSTPISKPPPPLETSLPFLTIPENRQLPPPSPQLPKHNLHVTKTLMETRRRLEQERATMQMTPGEFRRPRLASFGGMGTTSSLPSFVGSGNHNPAKHQLQNGYQGNGDYGSYAPAAPTTSSMGSSIRHSPLSSGISTPVTNVSPMHLQHIREQMAIALKRLKELEEQVRTIPVLQVKISVLQEEKRQLVSQLKNQRAASQINVCGVRKRSYSAGNASQLEQLSRARRSGGELYIDYEEEEMETVEQSTQRIKEFRQLTADMQALEQKIQDSSCEASSELRENGECRSVAVGAEENMNDIVVYHRGSRSCKDAAVGTLVEMRNCGVSVTEAMLGVMTEADKEIELQQQTIESLKEKIYRLEVQLRETTHDREMTKLKQELQAAGSRKKVDKATMAQPLVFSKVVEAVVQTRDQMVGSHMDLVDTCVGTSVETNSVGISCQPECKNKVVGPELPMNWWIVKERVEMHDRCAGRSVEMCDKSVSVEVSVCETGSNTEESVNDLTLLKTNLNLKEVRSIGCGDCSVDVTVCSPKECASRGVNTEAVSQVEAAVMAVPRTADQDTSTDLEQVHQFTNTETATLIESCTNTCLSTLDKQTSTQTVETRTVAVGEGRVKDINSSTKTRSIGVGTLLSGHSGFDRPSAVKTKESGVGQININDNYLVGLKMRTIACGPPQLTVGLTASRRSVGVGDDPVGESLENPQPQAPLGMMTGLDHYIERIQKLLAEQQTLLAENYSELAEAFGEPHSQMGSLNSQLISTLSSINSVMKSASTEELRNPDFQKTSLGKITGNYLGYTCKCGGLQSGSPLSSQTSQPEQEVGTSEGKPISSLDAFPTQEGTLSPVNLTDDQIAAGLYACTNNESTLKSIMKKKDGNKDSNGAKKNLQFVGINGGYETTSSDDSSSDESSSSESDDECDVIEYPLEEEEEEEDEDTRGMAEGHHAVNIEGLKSARVEDEMQVQECEPEKVEIRERYELSEKMLSACNLLKNTINDPKALTSKDMRFCLNTLQHEWFRVSSQKSAIPAMVGDYIAAFEAISPDVLRYVINLADGNGNTALHYSVSHSNFEIVKLLLDADVCNVDHQNKAGYTPIMLAALAAVEAEKDMRIVEELFGCGDVNAKASQAGQTALMLAVSHGRIDMVKGLLACGADVNIQDDEGSTALMCASEHGHVEIVKLLLAQPGCNGHLEDNDGSTALSIALEAGHKDIAVLLYAHVNFAKAQSPGTPRLGRKTSPGPTHRGSFD
modifications: full-length mCherry fusion
notes: human FL-KANK1 tagged with pmCherry
B2: KANK1 V49E: mCherry-KANK1 with point mutation V49E (protein)
chain: MAHTTKVNGSASGKAGDILSGDQDKEQKDPYFVETPYGYQLDLDFLKYEDDIQKGNTIKRLNIQKRRKPSVPCPEPRTTSGQQGIWTSTESLSSSNSDDNKQCPNFLIARSQVTSTPISKPPPPLETSLPFLTIPENRQLPPPSPQLPKHNLHVTKTLMETRRRLEQERATMQMTPGEFRRPRLASFGGMGTTSSLPSFVGSGNHNPAKHQLQNGYQGNGDYGSYAPAAPTTSSMGSSIRHSPLSSGISTPVTNVSPMHLQHIREQMAIALKRLKELEEQVRTIPVLQVKISVLQEEKRQLVSQLKNQRAASQINVCGVRKRSYSAGNASQLEQLSRARRSGGELYIDYEEEEMETVEQSTQRIKEFRQLTADMQALEQKIQDSSCEASSELRENGECRSVAVGAEENMNDIVVYHRGSRSCKDAAVGTLVEMRNCGVSVTEAMLGVMTEADKEIELQQQTIESLKEKIYRLEVQLRETTHDREMTKLKQELQAAGSRKKVDKATMAQPLVFSKVVEAVVQTRDQMVGSHMDLVDTCVGTSVETNSVGISCQPECKNKVVGPELPMNWWIVKERVEMHDRCAGRSVEMCDKSVSVEVSVCETGSNTEESVNDLTLLKTNLNLKEVRSIGCGDCSVDVTVCSPKECASRGVNTEAVSQVEAAVMAVPRTADQDTSTDLEQVHQFTNTETATLIESCTNTCLSTLDKQTSTQTVETRTVAVGEGRVKDINSSTKTRSIGVGTLLSGHSGFDRPSAVKTKESGVGQININDNYLVGLKMRTIACGPPQLTVGLTASRRSVGVGDDPVGESLENPQPQAPLGMMTGLDHYIERIQKLLAEQQTLLAENYSELAEAFGEPHSQMGSLNSQLISTLSSINSVMKSASTEELRNPDFQKTSLGKITGNYLGYTCKCGGLQSGSPLSSQTSQPEQEVGTSEGKPISSLDAFPTQEGTLSPVNLTDDQIAAGLYACTNNESTLKSIMKKKDGNKDSNGAKKNLQFVGINGGYETTSSDDSSSDESSSSESDDECDVIEYPLEEEEEEEDEDTRGMAEGHHAVNIEGLKSARVEDEMQVQECEPEKVEIRERYELSEKMLSACNLLKNTINDPKALTSKDMRFCLNTLQHEWFRVSSQKSAIPAMVGDYIAAFEAISPDVLRYVINLADGNGNTALHYSVSHSNFEIVKLLLDADVCNVDHQNKAGYTPIMLAALAAVEAEKDMRIVEELFGCGDVNAKASQAGQTALMLAVSHGRIDMVKGLLACGADVNIQDDEGSTALMCASEHGHVEIVKLLLAQPGCNGHLEDNDGSTALSIALEAGHKDIAVLLYAHVNFAKAQSPGTPRLGRKTSPGPTHRGSFD
modifications: left off: mCherry, C-terminal, kept

Legend:
GFP–talin1–cBAK = test: Mitochondrial targeting system (MTS): recruitment of mCherry–KANK1 by GFP–talin1–cBAK; format: cell-based; details: NIH3T3 fibroblasts and HEK293T cells; fluorescence microscopy colocalization
Excerpt: To examine the effect of these KANK1 mutations on talin interactions in cells, we next used a mitochondrial targeting system (MTS) which we previously used to screen for defined protein–protein interactions. In this assay, one protein is fused to a small peptide sequence from the pro-apoptotic protein BAK (cBAK) which leads to its insertion into the outer membrane of mitochondria. Proteins that interact with the cBAK-tagged protein will get recruited to mitochondria, and this recruitment can be verified either by visualizing colocalization using fluorescence microscopy (figure 4a) or by purification of mitochondria followed by detection of co-precipitates using biochemistry (figure 4b,c). […] To confirm that the interaction was meditated by the R7 domain, we performed the colocalization assays with truncated talin constructs.
(§1) NIH3T3 mouse fibroblasts and HEK293T human epithelial cells were obtained from the American Type Culture Collection (ATCC). The vinculin null and WT mouse embryonic fibroblasts (MEFs) originate from the Eileen Adamson laboratory. All cells were maintained in Dulbecco's Modified Eagle Medium (DMEM; Sigma) supplemented with 10% fetal bovine serum (FBS, Gibco), 1% L-glutamine (Sigma) and 1% non-essential amino acids (Sigma). Talin1&2 null cells were cultured in DMEM F-12 (Gibco) supplemented with 10% FBS, 1% L-glutamine, 1% non-essential amino acids and […] HEPES (Sigma). All cells were cultured at 37̊C supplied with 5% CO2 and 95% humidity. Transient transfections were performed using Lipofectamine LTX with Plus Reagent (Invitrogen) to NIH3T3 cells, Lipofectamine 2000 (Invitrogen) to talin null cells, and jetPRIME reagent (Polyplus) to MEFs and HEK293T cells, as per the manufacturer's instructions.
(§2) For the construction of mCherry-KANK1, human FL-KANK1 (generous donation from the Bershadsky laboratory) cDNA was tagged in the C-terminal site with pmCherry (Clontech) by restriction digestion. Point mutations (L41E, L43E, F45E and V49E) were introduced in mCherry-KANK1 by site-directed mutagenesis (NEB) using the following oligonucleotides: […]ga[…] and […] for L41E; […]ga[…] and […] for L43E; […]gaa[…] and […] for F45E; […]a[…] and […] for V49E. Generation of GFP–talin1–cBAK and GFP–cBAK was as previously described. G1404L was introduced on GFP–talin1–cBAK by the method above using […]ctt[…] and […]. To generate GFP–talin1 R7DD–cBAK and GFP–talin1 R9DD-cBAK constructs, R7-DD (3555 bp) and R9-DD (2661 bp) were amplified from talin-1 (Mus musculus). Restriction digestion with XhoI and HindIII FastDigest enzymes (Thermo Scientific) was used to linearize GFP–cBAK. DNA assembly was performed to join R7-DD and R9-DD to linearized the GFP–cBAK vector using the NEBuilder HiFi DNA assembly kit (NEB).
(§3) Images of fixed samples in PBS were acquired at room temperature using an Olympus IX83 inverted microscope equipped with a 60×/1.42 PlanApo N oil objective and a QImaging Retiga R6 CCD camera, controlled by Metamorph software. Samples were illuminated using LEDs (UV/Cyan/Green-Yellow/Red, Lumencor) for fluorescence excitation; a Sedat filter set (DAPI/FITC/TRITC/Cy5, Chroma, 89000) was used.

[1] = system: focal adhesions of NIH3T3 fibroblasts; test: KANK1 localization to focal adhesions (co-expression with GFP–paxillin); format: cell-based, mouse; details: NIH3T3 fibroblasts co-expressing GFP–paxillin
Experimental: as §1, §2, §3

Molecule | recruitment of mCherry–KANK1 to mitochondria by GFP–talin1–cBAK (GFP–talin1–cBAK) | localization of mCherry–KANK1 to FAs / FA belt [1]
B1 | readily recruits | readily localized to FAs, and predominantly to the typical ‘belt-like’ structure
B2 | abolishes GFP–talin–cBAK mediated recruitment | abolished localization to FAs and the FA belt

Source: PMC10281804, “The structural basis of the talin–KANK1 interaction that coordinates the actin and microtubule cytoskeletons at focal adhesions” (Open Biology, 2023)
